Laboratory results published in patent US20090053196.

B1: myc-tagged CHN-1 (^mycCHN-1) (protein)
chain: MSSGAEQHNTNGKKCYMNKRYDDAVDHYSKAIKVNPLPKYYQNRAMCYFQLNNLKMTEEDCKRALELSPNEVKPLYFLGNVFLQSKKYSEAISCLSKALYHNAVITNAPDIENALKRARHQKYEEEESKRIVQDVEFHTYLESLIEKDRQENSENPEELQRADMAKKRLTELTLATQEKRQNREVPEMLCGKITLELMKEPVIVPSGITYDREEIVQHLRRIGHFDPVTRKPLTENEIIPNYALKEVIEKFLDDNPWAKYEPGGMV
B2: myc-tagged UFD-2 (^mycUFD-2) (protein)
chain: MIEDEKAGLQPMDISDASVFFFQADVESKDFLTSLFDCEGKSDDRMLRYADAIIDVQNLNFDVSPQCLQSNIAEIITKFVLLSQDGSRRGLSRSFNFIDPDIIAGCREEDAIEFLLINFVRCHHELGKSGTSNCYKKTLESTRKAVFSVFVMIQRGYLESQLRSQHASLVFTKRLLEDTVSNVFLRTLVEYLASTDECDEDAITETFNPIFGILRSGIICQRFEDNKDEIVRQILRVMNLLLSIRLPSNGPRPLSNLLVNREDFLPTPSEKIQGREFGLMSFLGPFFSYGLESSARRPNHRVFVDCEEDARKYDGSVNTEQKLYFQRMDPIRTMLHQLMLPLASDQGSRNKTLRWIATIISTNDIRTRSHYDPSDVLCDHYMTNFLSVMYMFSEKIDLSKIIVDYPFLPSSLINISKETRLKMDESGAVAFASQFADRPDEYHFSTVCFFLTIAAQRLVIPPLMNQISEYSRHLKELKHKINALKEKLNTVSGFERAEVEKKLNYETEHWKLMSRHLLCVKTQAQDPALMASSMDFVDKQMKFILNLLCDNLDLLGDDSQLPTEVSQMFCALPEYFLEDALDFYIFAISNGMKLLMERNADWISRLTVLFTQYHYIKSPFLVSKLVRVLSSIQPPLWFNVVRLRMAQENLLMCMIKFYSDFEDNGDFYEKFNVRGNIQYMLEKMEEDMFYKGKFMDMARECGAEFIRFVNMVINDATWCIDESLSGLKSIHDVEKKMANKVEWDNTDQEIRNQDLGVYEEAKRKVKGWLGTAKSNLKLLLSITVNSPEPFRTPVLGERLAAMLNHNLSQLIGSKASELKVKDPRSYGWEPREFVSLLISIYLKLNMPAFVKYIAYDERTYSPEFFHNAIECMRKNSIVGFSQLESFEHLAEDVKKEYEAKAELEEEYDDVPEEFKDPIMDAIMVDPVKLPSGHVMDRAVIERHLLSTPNNPFNRAPLSHNELSPDSELKAKIQEWICQKRNSKK

What was measured:
[1] = target: T1, myc-tagged UFD-2 (^mycUFD-2), Q09349
T1 chain: B2 chain

[2] = target: FLAG-tagged UNC-45 (UNC-45^FLAG)

Protein	in vitro multiubiquitylation of UNC-45 with both enzymes present, Western blot [1]	in vitro ubiquitylation of UNC-45 (with E1 and the E2 LET-70), Western blot [2]
B1	these enzymes together dramatically stimulated the multiubiquitylation reaction, yielding UNC-45 conjugates with significantly longer chains than those conjugated by CHN-1 or UFD-2 alone	the addition of full-length CHN-1 proceeds to efficient ubiquitin conjugation. However, the majority of conjugates appeared to contain only one to three ubiquitin moieties
B2		addition of one to three ubiquitins to the substrate protein UNC-45
